Data on one molecule can be found in paper PMC11004252.

Where only a bound is given, the exact number is not on record here.

In the experiment the target is phospho-Ser 2 carboxy-terminal domain (CTD) RNA polymerase II (human (endogenous in hSAECs)), P24928. Put plainly: proximity ligation; Duolink in situ PLA, mouse anti-IRF1 and rabbit anti-pSer2 Pol II Abs, fixed and permeabilized hSAECs, mock or RSV infected (MOI 1, 24 h), solvent. The settings on record: remark: other sources report otherwise.

B1: interferon regulatory factor 1 (IRF1), P10914 1-325 (natural protein)
chain: MPITRMRMRPWLEMQINSNQIPGLIWINKEEMIFQIPWKHAAKHGWDINKDACLFRSWAIHTGRYKAGEKEPDPKTWKANFRCAMNSLPDIEEVKDQSRNKGSSAVRVYRMLPPLTKNQRKERKSKSSRDAKSKAKRKSCGDSSPDTFSDGLSSSTLPDDHSSYTVPGYMQDLEVEQALTPALSPCAVSSTLPDWHIPVEVVPDSTSDLYNFQVSPMPSTSEATTDEDEEGKLPEDIMKLLEQSEWQPTNVDGKGYLLNEPGVQPTSVYGDFSCKEEPEIDSPGGDIGLSLQRVFTDLKNMDATWLDSLLTPVRLPSIQAIPCAP
modifications: here or on the partner: phospho-Ser 2 of the carboxy-terminal domain (CTD)
B1: the PLA foci/nucleus (RSV infected) turned out to be 24 foci/nucleus; the PLA foci/nucleus (mock infected) worked out at 6.3 foci/nucleus; the fold increase of PLA complex, RSV against mock is 25 fold; the percent of cells with PLA complexes (uninfected) was > 90 % of cells.
